Assays:
[1] = biological target: prefusion RSVF sc9-10 DS-Cav1-A149C;Y458C;S46G;E92D;S215P;K465Q thermostabilized variant (DS2) (respiratory syncytial virus) (UniProt P03420); assay: SPR
RSVF-multi-4 K29L = assay: SPR

Sequence of motavizumab Fab (VH): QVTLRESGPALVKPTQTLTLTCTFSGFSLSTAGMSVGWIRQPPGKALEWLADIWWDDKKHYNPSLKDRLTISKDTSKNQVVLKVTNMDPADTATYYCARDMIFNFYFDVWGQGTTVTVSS
Sequence of motavizumab Fab (VL): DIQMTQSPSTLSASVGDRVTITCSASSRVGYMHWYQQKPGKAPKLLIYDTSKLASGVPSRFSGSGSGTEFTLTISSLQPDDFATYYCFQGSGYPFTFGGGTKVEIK

Substance | Kd [1] | Kd (RSVF-multi-4 K29L)
motavizumab Fab | 0.015 nM | –
RSV90 Fab | 0.9 nM | > 1000 nM
